Patent US20200399311A1
Non-standard residues stand in square brackets, D forms with d. No end group written: not given here. Hyp = O=C(O)[C@@H]1C[C@@H](O)CN1; NMeI = CC[C@H](C)[C@H](NC)C(=O)O; hArg = N=C(N)NCCCC[C@H](N)C(=O)O; Cit = NC(=O)NCCC[C@H](N)C(=O)O; Nle = CCCC[C@H](N)C(=O)O; APPA = not defined here; Aib = CC(C)(N)C(=O)O

What was measured:
[1] = target: Purified recombinant human PCSK9 (His-tagged, BPS Biosciences) (human) (UniProt Q8NBP7); assay: SPR (Biacore T200), PCSK9 amine-coupled on chip, peptide at 50 µM
Purified recombinant human PCSK9 (His-tagged, BPS Biosciences) (human), sequence (Q8NBP7 31-692 limits assumed): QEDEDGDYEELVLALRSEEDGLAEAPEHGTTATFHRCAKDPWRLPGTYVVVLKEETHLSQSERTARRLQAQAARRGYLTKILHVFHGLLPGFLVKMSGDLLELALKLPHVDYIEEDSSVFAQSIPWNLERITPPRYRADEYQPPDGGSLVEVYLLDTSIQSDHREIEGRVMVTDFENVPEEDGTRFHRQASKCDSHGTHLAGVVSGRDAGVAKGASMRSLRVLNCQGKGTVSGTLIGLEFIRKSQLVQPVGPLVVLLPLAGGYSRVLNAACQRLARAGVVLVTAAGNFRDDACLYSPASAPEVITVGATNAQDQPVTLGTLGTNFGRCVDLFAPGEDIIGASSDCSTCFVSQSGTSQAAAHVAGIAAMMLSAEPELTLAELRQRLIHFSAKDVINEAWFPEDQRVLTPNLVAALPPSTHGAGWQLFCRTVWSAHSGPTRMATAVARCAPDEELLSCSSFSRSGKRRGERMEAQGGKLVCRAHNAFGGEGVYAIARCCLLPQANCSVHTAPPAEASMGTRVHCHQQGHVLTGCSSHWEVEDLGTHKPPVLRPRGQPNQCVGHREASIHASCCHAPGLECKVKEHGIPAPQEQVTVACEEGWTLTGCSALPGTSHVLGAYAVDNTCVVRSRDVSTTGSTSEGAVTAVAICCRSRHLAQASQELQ

[2] = target: Purified recombinant human PCSK9 (His-tagged, BPS Biosciences) (human) (UniProt Q8NBP7); assay: SPR (Biacore T200), PCSK9 amine-coupled on chip, peptide at 100 µM

Binder	Binding - Response Unit (RU) [1] [RU]	Binding - Response Unit (RU) [2] [RU]
SIP[APPA]NLERITPC (reading uncertain) [Short chain peptide Seq. ID. No. 18 (SIP-APPA-NLERITPC)]	10.2	17.9
SIPWNLE[Cit]ITPC [Short chain peptide Seq. ID. No. 12 (SIPWNLE-Cit-ITPC)]	3.1	6.7
S[NMeI]IPWNLERITPC [Short chain peptide Seq. ID. No. 15 (S-(N-Me-Ile)-…)]	11.4	29.9
SIPWNLER[Aib]TPC [Short chain peptide Seq. ID. No. 5 (SIPWNLER-Aib-TPC)]	2.3	7.1
SIPWNLERI[Aib]PC [Short chain peptide Seq. ID. No. 13 (…-Aib-PC)]	9.75	37.4
SIP[Bip(OMe)]NLERITPC [Short chain peptide Seq. ID. No. 19 (SIP-Bip(OMe)-NLERITPC)]	35.1	85.9
SIPWN[Aib]ERITPC [Short chain peptide Seq. ID. No. 10 (SIPWN-Aib-ERITPC)]	3	7.5
SIPWNLER[Nle]TPC [Short chain peptide Seq. ID. No. 4 (SIPWNLER-Nle-TPC)]	13.1	30
SIPWNLE[hArg]ITPC [Short chain peptide Seq. ID. No. 6 (SIPWNLE-Har-ITPC)]	6.55	17.5
SIPWN[Nle]ERITPC [Short chain peptide Seq. ID. No. 7 (SIPWN-Nle-ERITPC)]	6.65	16
[Aib]IPWNLERITPC [Short chain peptide Seq. ID. No. 14 (Aib-…)]	7.1	15
SI[Hyp]WNLERITPC [Short chain peptide Seq. ID. No. 8 (SI-Hyp-…)]	5.7	13.2
